From paper PMC12267109, “The enzyme kinetics of branched‐chain fatty acid synthesis of metazoan fatty acid synthase” (Protein Science : A Publication of the Protein Society, 2025)

Experiments:
[1] = target: KS-MAT^S581A didomain of murine FAS (functional MAT knockout) (murine)
[2] = system: CC(=O)SCCNC(=O)CCNC(=O)[C@H](O)C(C)(C)COP(=O)(O)OP(=O)(O)OC[C@H]1O[C@@H](n2cnc3c(N)ncnc32)[C@H](O)[C@@H]1OP(=O)(O)O; experiment: purified protein; conditions: NADPH substrates likely compete in the malonyl-acetyl transferase (MAT) binding pocket

Inhibition constant K i (substrate inhibition on titration of decanoyl-ACP at constant metmal-ACP; KS elongation activity by the enzyme-coupled MabA assay, apparent constant) [1] [µM]	Substance	Km [2] [µM]
270	decanoyl-acyl carrier protein (ACP) (domain or fragment)	
	metazoan fatty acid synthase (mFAS), murine FAS (Mus musculus)	69 ± 12
